B1: Q71NL92AY93LQ96TD128G: mutated TriA variant of SEQ ID NO: 2 (protein)
chain: MQTLSIQHGTLVTMDQYRRVLGDSWVHVQDGRIVALGVHAESVPPPADRVIDARGKVVLPGFINAHTHVNNILLRGGPSHGRQLYDWLFNVALPGTKAMRPEDVAVAVRLYCAEAVRSGITTINDNAGSAIYPGNIEAAMAVYGEVGVRVVYARMFFDRMDGRIQGYVDALKARSPQVELCSIMEETAVAKDRITALSDQYHGTAGGRISVWPAPAITPAVTVEGMRWAQAFARDRAVMWTLHMAESDHDERLHWMSPAEYMECYGLLDERLQVAHCVYFDRKDVRLLHRHNVKVASQVVSNAYLGSGVAPVPEMVERGMAVGIGTDDGNCNDSVNMIGDMKFMAHIHRAVHRDADVLTPEKILEMATIDGARSLGMDHEIGSIETGKRADLILLDLRHPQTTPHHHLAATIVFQAYGNEVDTVLIDGNVVMENRRLSFLPPERELAFLEEAQSRATAILQRANMVANPAWRSL
modifications: Pseudomonas
B2: L92AY93LQ96TD128G: mutated TriA variant of SEQ ID NO: 2 (protein)
chain: MQTLSIQHGTLVTMDQYRRVLGDSWVHVQDGRIVALGVHAESVPPPADRVIDARGKVVLPGFINAHTHVNQILLRGGPSHGRQLYDWLFNVALPGTKAMRPEDVAVAVRLYCAEAVRSGITTINDNAGSAIYPGNIEAAMAVYGEVGVRVVYARMFFDRMDGRIQGYVDALKARSPQVELCSIMEETAVAKDRITALSDQYHGTAGGRISVWPAPAITPAVTVEGMRWAQAFARDRAVMWTLHMAESDHDERLHWMSPAEYMECYGLLDERLQVAHCVYFDRKDVRLLHRHNVKVASQVVSNAYLGSGVAPVPEMVERGMAVGIGTDDGNCNDSVNMIGDMKFMAHIHRAVHRDADVLTPEKILEMATIDGARSLGMDHEIGSIETGKRADLILLDLRHPQTTPHHHLAATIVFQAYGNEVDTVLIDGNVVMENRRLSFLPPERELAFLEEAQSRATAILQRANMVANPAWRSL
modifications: Pseudomonas
B3: L88AL92AY93LF157L: mutated TriA variant of SEQ ID NO: 2 (protein)
chain: MQTLSIQHGTLVTMDQYRRVLGDSWVHVQDGRIVALGVHAESVPPPADRVIDARGKVVLPGFINAHTHVNQILLRGGPSHGRQLYDWAFNVALPGQKAMRPEDVAVAVRLYCAEAVRSGITTINDNADSAIYPGNIEAAMAVYGEVGVRVVYARMFLDRMDGRIQGYVDALKARSPQVELCSIMEETAVAKDRITALSDQYHGTAGGRISVWPAPAITPAVTVEGMRWAQAFARDRAVMWTLHMAESDHDERLHWMSPAEYMECYGLLDERLQVAHCVYFDRKDVRLLHRHNVKVASQVVSNAYLGSGVAPVPEMVERGMAVGIGTDDGNCNDSVNMIGDMKFMAHIHRAVHRDADVLTPEKILEMATIDGARSLGMDHEIGSIETGKRADLILLDLRHPQTTPHHHLAATIVFQAYGNEVDTVLIDGNVVMENRRLSFLPPERELAFLEEAQSRATAILQRANMVANPAWRSL
modifications: Pseudomonas
B4: W87HL92AY93LF157L: mutated TriA variant of SEQ ID NO: 2 (protein)
chain: MQTLSIQHGTLVTMDQYRRVLGDSWVHVQDGRIVALGVHAESVPPPADRVIDARGKVVLPGFINAHTHVNQILLRGGPSHGRQLYDHLFNVALPGQKAMRPEDVAVAVRLYCAEAVRSGITTINDNADSAIYPGNIEAAMAVYGEVGVRVVYARMFLDRMDGRIQGYVDALKARSPQVELCSIMEETAVAKDRITALSDQYHGTAGGRISVWPAPAITPAVTVEGMRWAQAFARDRAVMWTLHMAESDHDERLHWMSPAEYMECYGLLDERLQVAHCVYFDRKDVRLLHRHNVKVASQVVSNAYLGSGVAPVPEMVERGMAVGIGTDDGNCNDSVNMIGDMKFMAHIHRAVHRDADVLTPEKILEMATIDGARSLGMDHEIGSIETGKRADLILLDLRHPQTTPHHHLAATIVFQAYGNEVDTVLIDGNVVMENRRLSFLPPERELAFLEEAQSRATAILQRANMVANPAWRSL
modifications: Pseudomonas
B5: L92AY93I: mutated TriA variant of SEQ ID NO: 2 (protein)
chain: MQTLSIQHGTLVTMDQYRRVLGDSWVHVQDGRIVALGVHAESVPPPADRVIDARGKVVLPGFINAHTHVNQILLRGGPSHGRQLYDWLFNVAIPGQKAMRPEDVAVAVRLYCAEAVRSGITTINDNADSAIYPGNIEAAMAVYGEVGVRVVYARMFFDRMDGRIQGYVDALKARSPQVELCSIMEETAVAKDRITALSDQYHGTAGGRISVWPAPAITPAVTVEGMRWAQAFARDRAVMWTLHMAESDHDERLHWMSPAEYMECYGLLDERLQVAHCVYFDRKDVRLLHRHNVKVASQVVSNAYLGSGVAPVPEMVERGMAVGIGTDDGNCNDSVNMIGDMKFMAHIHRAVHRDADVLTPEKILEMATIDGARSLGMDHEIGSIETGKRADLILLDLRHPQTTPHHHLAATIVFQAYGNEVDTVLIDGNVVMENRRLSFLPPERELAFLEEAQSRATAILQRANMVANPAWRSL
modifications: Pseudomonas
B6: L92AY93LF157L: mutated TriA variant of SEQ ID NO: 2 (protein)
chain: MQTLSIQHGTLVTMDQYRRVLGDSWVHVQDGRIVALGVHAESVPPPADRVIDARGKVVLPGFINAHTHVNQILLRGGPSHGRQLYDWLFNVALPGQKAMRPEDVAVAVRLYCAEAVRSGITTINDNADSAIYPGNIEAAMAVYGEVGVRVVYARMFLDRMDGRIQGYVDALKARSPQVELCSIMEETAVAKDRITALSDQYHGTAGGRISVWPAPAITPAVTVEGMRWAQAFARDRAVMWTLHMAESDHDERLHWMSPAEYMECYGLLDERLQVAHCVYFDRKDVRLLHRHNVKVASQVVSNAYLGSGVAPVPEMVERGMAVGIGTDDGNCNDSVNMIGDMKFMAHIHRAVHRDADVLTPEKILEMATIDGARSLGMDHEIGSIETGKRADLILLDLRHPQTTPHHHLAATIVFQAYGNEVDTVLIDGNVVMENRRLSFLPPERELAFLEEAQSRATAILQRANMVANPAWRSL
modifications: Pseudomonas
B7: L92AY93VM155TF157L: mutated TriA variant of SEQ ID NO: 2 (protein)
chain: MQTLSIQHGTLVTMDQYRRVLGDSWVHVQDGRIVALGVHAESVPPPADRVIDARGKVVLPGFINAHTHVNQILLRGGPSHGRQLYDWLFNVAVPGQKAMRPEDVAVAVRLYCAEAVRSGITTINDNADSAIYPGNIEAAMAVYGEVGVRVVYARTFLDRMDGRIQGYVDALKARSPQVELCSIMEETAVAKDRITALSDQYHGTAGGRISVWPAPAITPAVTVEGMRWAQAFARDRAVMWTLHMAESDHDERLHWMSPAEYMECYGLLDERLQVAHCVYFDRKDVRLLHRHNVKVASQVVSNAYLGSGVAPVPEMVERGMAVGIGTDDGNCNDSVNMIGDMKFMAHIHRAVHRDADVLTPEKILEMATIDGARSLGMDHEIGSIETGKRADLILLDLRHPQTTPHHHLAATIVFQAYGNEVDTVLIDGNVVMENRRLSFLPPERELAFLEEAQSRATAILQRANMVANPAWRSL
modifications: Pseudomonas
B8: L92AY93LM155TF157L: mutated TriA variant of SEQ ID NO: 2 (protein)
chain: MQTLSIQHGTLVTMDQYRRVLGDSWVHVQDGRIVALGVHAESVPPPADRVIDARGKVVLPGFINAHTHVNQILLRGGPSHGRQLYDWLFNVALPGQKAMRPEDVAVAVRLYCAEAVRSGITTINDNADSAIYPGNIEAAMAVYGEVGVRVVYARTFLDRMDGRIQGYVDALKARSPQVELCSIMEETAVAKDRITALSDQYHGTAGGRISVWPAPAITPAVTVEGMRWAQAFARDRAVMWTLHMAESDHDERLHWMSPAEYMECYGLLDERLQVAHCVYFDRKDVRLLHRHNVKVASQVVSNAYLGSGVAPVPEMVERGMAVGIGTDDGNCNDSVNMIGDMKFMAHIHRAVHRDADVLTPEKILEMATIDGARSLGMDHEIGSIETGKRADLILLDLRHPQTTPHHHLAATIVFQAYGNEVDTVLIDGNVVMENRRLSFLPPERELAFLEEAQSRATAILQRANMVANPAWRSL
modifications: Pseudomonas
B9: L92AY93V: mutated TriA variant of SEQ ID NO: 2 (protein)
chain: MQTLSIQHGTLVTMDQYRRVLGDSWVHVQDGRIVALGVHAESVPPPADRVIDARGKVVLPGFINAHTHVNQILLRGGPSHGRQLYDWLFNVAVPGQKAMRPEDVAVAVRLYCAEAVRSGITTINDNADSAIYPGNIEAAMAVYGEVGVRVVYARMFFDRMDGRIQGYVDALKARSPQVELCSIMEETAVAKDRITALSDQYHGTAGGRISVWPAPAITPAVTVEGMRWAQAFARDRAVMWTLHMAESDHDERLHWMSPAEYMECYGLLDERLQVAHCVYFDRKDVRLLHRHNVKVASQVVSNAYLGSGVAPVPEMVERGMAVGIGTDDGNCNDSVNMIGDMKFMAHIHRAVHRDADVLTPEKILEMATIDGARSLGMDHEIGSIETGKRADLILLDLRHPQTTPHHHLAATIVFQAYGNEVDTVLIDGNVVMENRRLSFLPPERELAFLEEAQSRATAILQRANMVANPAWRSL
modifications: Pseudomonas
B10: W87FL92AY93LF157L: mutated TriA variant of SEQ ID NO: 2 (protein)
chain: MQTLSIQHGTLVTMDQYRRVLGDSWVHVQDGRIVALGVHAESVPPPADRVIDARGKVVLPGFINAHTHVNQILLRGGPSHGRQLYDFLFNVALPGQKAMRPEDVAVAVRLYCAEAVRSGITTINDNADSAIYPGNIEAAMAVYGEVGVRVVYARMFLDRMDGRIQGYVDALKARSPQVELCSIMEETAVAKDRITALSDQYHGTAGGRISVWPAPAITPAVTVEGMRWAQAFARDRAVMWTLHMAESDHDERLHWMSPAEYMECYGLLDERLQVAHCVYFDRKDVRLLHRHNVKVASQVVSNAYLGSGVAPVPEMVERGMAVGIGTDDGNCNDSVNMIGDMKFMAHIHRAVHRDADVLTPEKILEMATIDGARSLGMDHEIGSIETGKRADLILLDLRHPQTTPHHHLAATIVFQAYGNEVDTVLIDGNVVMENRRLSFLPPERELAFLEEAQSRATAILQRANMVANPAWRSL
modifications: Pseudomonas

Format: biochemical
Settings: pH 7.2
Outline: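 E. coli resting cells expressing His-tagged TriA incubated with azines, melamine or atrazine. Enzyme in 25 mM sodium phosphate pH 7.2 at 30 °C, substrate 1–10 nM. Loss of parent and formation of OH-metabolite followed by UPLC-HR-MS; % degradation relative to empty-vector cells.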

First: B1
Second: B2
The “Degradation in % of 6-cyclopentyl-N4-(2,3,4,5,6-pentafluorophenyl)-1,3,5-triazine-2,4-diamine” value of the first is lower: 85% for the first, 94% for the second.

First: B3
Second: B4
The “Degradation in % of 6-cyclopentyl-N4-(2,3,4,5,6-pentafluorophenyl)-1,3,5-triazine-2,4-diamine” value of the first is higher: 99% for the first, 18% for the second.

First: B5
Second: B6
The “Degradation in % of 6-cyclopentyl-N4-(2,3,4,5,6-pentafluorophenyl)-1,3,5-triazine-2,4-diamine” value of the first is lower: 75% for the first, 97% for the second.

B7 and B8 are the same in “Degradation in % of 6-cyclopentyl-N4-(2,3,4,5,6-pentafluorophenyl)-1,3,5-triazine-2,4-diamine” value: 99% for the first, 99% for the second.

Going from B9 to B10, the “Degradation in % of 6-cyclopentyl-N4-(2,3,4,5,6-pentafluorophenyl)-1,3,5-triazine-2,4-diamine” value rises from 58% to 99%.

B1 and B2 are the same in “Degradation in % of Melamine” value: 0% for the first, 0% for the second.

First: B3
Second: B4
The “Degradation in % of Melamine” value of the first is higher: 1% for the first, 0% for the second.

Going from B5 to B6, the “Degradation in % of Melamine” value rises from 0% to 43%.

Going from B7 to B8, the “Degradation in % of Melamine” value rises from 0% to 41%.

Compared with B9, B10 is higher in “Degradation in % of Melamine” value: 0% for the first, 1% for the second.

Reference: patent publication US11499162B2, “Plants having increased tolerance to herbicides” (BASF SE, priority 2016, dated 2022)
